According to patent US20250057968A1, “ANTI-DLL3 ANTIBODY AND PHARMACEUTICAL USE THEREOF, AND ANTIBODY-DRUG CONJUGATE CONTAINING ANTI-DLL3 ANTIBODY” (Jiangsu Hengrui Pharmaceuticals Co., Ltd., priority 2021, published 2025):

Target: T1, RatDLL3/CHO-s (Rattus norvegicus, UniProt O88671)
T1 construct: Rat DLL3 full-length protein; expressed in transfected cells; host or cells: CHO-s (Invitrogen, R80007), lentiviral transduction
T1 sequence (O88671 33-589): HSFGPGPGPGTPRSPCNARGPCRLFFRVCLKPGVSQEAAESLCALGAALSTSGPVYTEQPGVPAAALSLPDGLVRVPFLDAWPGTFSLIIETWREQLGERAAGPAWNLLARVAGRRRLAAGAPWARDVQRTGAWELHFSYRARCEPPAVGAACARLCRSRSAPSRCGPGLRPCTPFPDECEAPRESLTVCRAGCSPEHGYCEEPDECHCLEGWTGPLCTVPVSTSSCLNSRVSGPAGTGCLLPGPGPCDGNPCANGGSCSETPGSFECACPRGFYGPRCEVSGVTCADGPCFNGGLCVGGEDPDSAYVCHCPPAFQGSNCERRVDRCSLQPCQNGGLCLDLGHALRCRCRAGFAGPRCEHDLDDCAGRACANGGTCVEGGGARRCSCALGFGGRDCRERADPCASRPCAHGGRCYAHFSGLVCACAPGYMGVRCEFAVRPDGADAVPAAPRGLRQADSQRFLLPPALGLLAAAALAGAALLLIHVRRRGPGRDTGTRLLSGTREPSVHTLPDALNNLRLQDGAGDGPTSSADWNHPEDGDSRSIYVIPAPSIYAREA
Experiment: Cell-level FACS binding assay, RatDLL3/CHO-s cells
Experimental: Cells of the DLL3-expressing small cell lung cancer cell lines H1184 (ATCC, Cat. No. CRL-5858), DLL3/H82, cynoDLL3/CHO-s, and RatDLL3/CHO-s were suspended at 1×10^6/mL in FACS buffer (1% BSA+pH 7.4 PBS), and the cell suspensions were added to a 96-well round-bottom plate (Corning, 3795) at 100 μL/well. The plate was centrifuged at 300 g for 5 min, and the supernatant was removed. Different concentrations of test antibodies were added at 100 μL/well. The plate was incubated in the dark in a refrigerator at 4° C. for 1 h. After 3 washes by centrifugation at 300 g, working concentrations of APC anti-human IgG Fc (BioLegend, 410712) or PE F(ab′)2-goat anti-human IgG (invitrogen, H10104) were added. The plate was incubated in the dark in a refrigerator at 4° C. for 40 min. After 3 washes by centrifugation at 300 g, the geometric mean fluorescence intensity was measured on an Invitrogen flow cytometer, and the EC50 values of the antibodies in binding to DLL3-expressing cells were calculated. The results are shown in Table 11-1, Table 11-2, Table 11-3, and FIG. 1A to FIG. 1C.

Question: How did the “binding to cells expressing rat DLL3 (in words)” value turn out when “BI-764532: positive control molecule, constructed by reference to WO2019234220A1; heavy chain SEQ ID NO: 62, light chain SEQ ID NO: 63 [reference compound]” was run?
Answer: Its value is “No binding”.
